Experimental data: US20120034229A1 (UNIVERSITE CLAUDE BERNARD LYON 1, published 2012)

Columns and labels:
[1] = biological target: T1, mature form of alpha3 lacking the LG4/5 domain (human, UniProt Q16787-1 28-1348, limits assumed); assay: Western blot of purified LN5, reducing SDS-PAGE
T1 construct: domain: mature form of alpha3 lacking the LG4/5 domain; Alpha3 subunit of LN5 purified from keratinocyte culture medium, reducing SDS-PAGE; also called alpha3 chain of mature LN5
T1 sequence (looked up): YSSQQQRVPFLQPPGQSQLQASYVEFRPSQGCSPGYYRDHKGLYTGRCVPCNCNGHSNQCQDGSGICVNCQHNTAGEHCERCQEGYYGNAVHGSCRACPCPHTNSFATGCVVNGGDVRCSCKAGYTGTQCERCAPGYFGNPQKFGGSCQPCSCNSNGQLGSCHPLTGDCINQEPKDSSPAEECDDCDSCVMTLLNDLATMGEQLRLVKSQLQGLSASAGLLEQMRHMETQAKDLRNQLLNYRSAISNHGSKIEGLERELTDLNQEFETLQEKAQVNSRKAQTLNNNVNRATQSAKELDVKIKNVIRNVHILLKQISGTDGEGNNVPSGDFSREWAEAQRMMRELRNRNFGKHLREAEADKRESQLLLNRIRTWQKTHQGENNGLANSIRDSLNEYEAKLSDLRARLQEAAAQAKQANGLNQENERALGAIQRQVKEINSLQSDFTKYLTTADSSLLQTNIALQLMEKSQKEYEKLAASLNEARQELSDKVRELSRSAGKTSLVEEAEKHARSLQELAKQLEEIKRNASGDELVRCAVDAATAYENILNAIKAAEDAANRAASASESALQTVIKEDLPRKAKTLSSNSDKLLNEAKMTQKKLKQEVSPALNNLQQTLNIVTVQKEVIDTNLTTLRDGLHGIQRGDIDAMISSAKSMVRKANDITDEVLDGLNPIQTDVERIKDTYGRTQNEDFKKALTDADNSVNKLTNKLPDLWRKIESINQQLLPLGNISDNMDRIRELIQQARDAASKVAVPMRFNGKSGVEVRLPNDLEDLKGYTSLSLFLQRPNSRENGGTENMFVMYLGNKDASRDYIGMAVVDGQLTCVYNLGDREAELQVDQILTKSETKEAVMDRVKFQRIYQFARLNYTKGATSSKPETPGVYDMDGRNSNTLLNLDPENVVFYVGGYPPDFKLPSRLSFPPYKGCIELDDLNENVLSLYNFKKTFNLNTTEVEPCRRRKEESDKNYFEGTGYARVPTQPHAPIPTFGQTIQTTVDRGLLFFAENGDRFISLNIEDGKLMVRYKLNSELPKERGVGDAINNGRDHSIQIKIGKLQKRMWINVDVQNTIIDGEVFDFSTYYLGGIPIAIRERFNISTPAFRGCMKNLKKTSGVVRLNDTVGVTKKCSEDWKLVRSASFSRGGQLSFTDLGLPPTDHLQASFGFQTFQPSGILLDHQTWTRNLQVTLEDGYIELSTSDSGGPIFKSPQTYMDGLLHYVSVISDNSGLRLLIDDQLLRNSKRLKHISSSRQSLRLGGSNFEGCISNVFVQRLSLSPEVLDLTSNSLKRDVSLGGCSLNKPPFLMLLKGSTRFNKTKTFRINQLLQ

[2] = biological target: T2, recombinant LG4/5 fragment of chain alpha3 of human laminin-5 (human, UniProt Q16787 2981-3333, limits assumed); assay: Western blot of the purified recombinant LG4/5 fragment
T2 construct: Recombinantly expressed and purified on heparin as in Okamoto et al. 2003; also called alpha3LG4/5 fragment; LG4/5 domain
T2 sequence: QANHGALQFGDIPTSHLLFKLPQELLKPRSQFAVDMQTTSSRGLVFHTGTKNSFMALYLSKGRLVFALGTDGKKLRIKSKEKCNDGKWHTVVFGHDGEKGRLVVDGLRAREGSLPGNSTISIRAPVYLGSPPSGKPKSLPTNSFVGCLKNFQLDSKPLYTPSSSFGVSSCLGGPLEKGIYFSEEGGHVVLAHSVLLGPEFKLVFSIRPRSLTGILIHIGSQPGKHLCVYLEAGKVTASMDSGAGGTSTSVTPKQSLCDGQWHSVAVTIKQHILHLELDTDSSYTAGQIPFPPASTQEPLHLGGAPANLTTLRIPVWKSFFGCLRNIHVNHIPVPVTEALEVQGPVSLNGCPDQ

binding result [1]: no binding
binding result [2]: binds
B1: 1H12 monoclonal antibody produced by the hybridoma cell line named 1H12 (C.N.C.M. I-3890) (antibody, V domains shown)
VH: VKLQQSGPELVKPGASVKISCKTSGYTFTEYTIHWVKQSHGKTLEWIGGINPKNGDTSYNQKFKGKATLTVDKSSNTAYMEFRSLTSEDSAVYYCASPDLPPMDYWGQGTTVTVSS
VL: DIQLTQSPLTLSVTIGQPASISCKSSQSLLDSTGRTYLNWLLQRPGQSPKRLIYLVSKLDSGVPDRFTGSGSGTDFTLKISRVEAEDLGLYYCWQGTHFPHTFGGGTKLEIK
notes: Mouse IgG1 kappa from hybridoma (supernatant or ascites); Ends of the V domains come from PCR primers; also called 1H12 mAb; mAb 1H12
